In patent publication US10809222B2, “Opioid detection based on high quality graphene transistor arrays and a synthetic mu receptor” (priority 2013, dated 2020):

Legend:
[1] = Secondary structure content by circular dichroism; assay type: physicochemical
Excerpt: The CD spectra indicated predominantly helical structures with a helical secondary structure content of ˜48% (estimations based on the molar ellipticity over the range 205 to 260 nm). The comparison of the helical content with that of the native human MUR expressed in yeast system in the presence of high concentration of detergent (0.1% SDS) is presented in Table 1.

mu-receptor protein = test: Raman spectroscopy optical readout of ligand binding on mu-receptor-protein-functionalized GFET; parameters: species or system human
Excerpt: Raman spectroscopy of the graphene layer in a functionalized GFET was used as an optical readout method to detect ligand binding. […]
A similar shift is seen in the 2D peak in FIG. 8c. No shifts were seen after exposure to pure buffer as a negative control, in FIGS. 8d and 8e.

mu receptor protein = mu receptor protein (Homo sapiens, UniProt P35372); test: GFET sensor response (Dirac voltage shift) of mu receptor protein-functionalized graphene transistors; conditions: 10 micrograms/mL, negative control of specificity, 15-25 devices
[2] = test system: human μ opioid receptor expressed in HEK293 cells; test: Competitive TR-FRET (HTRF) binding competition assay with native MUR and naltrexone-derived fluorescent antagonist; conditions: methodology described for FIG. 16
Excerpt: FIG. 16. […] Data is used to calculate HTRF ratios, and represent the mean±standard error of mean of quadruplicates. ΔF is used for the comparison of different runs of the same assay which reflects the signal to background of the assay. ΔF=[(Ratiosample−Ratiobackgroud)/Ratiobackgroud](%).
A recently developed methodology which uses a fluorescently labeled ligand and the native MUR was used to investigate the ligand-binding capabilities of the water-soluble receptors.

[3] = Thermostability by circular dichroism; conditions: 5 mM sodium phosphate; for melting point (CD thermostability): 0.01% SDS, pH=7.0
Experimental: The secondary structure of the water-soluble variant was determined through circular dichroism (CD). Circular dichroism (CD) spectra were recorded by using CD Spectrometer (Chirascan, AppliedPhotophysics Limited, Leatherhead, United Kingdom) with a scan speed of 1 nm/s and 1 mm path length. Corresponding blanks were used for calibration for each assay and subtracted from raw data. Two data sets were recorded and averaged to increase the signal-to-noise ratio. The CDNN CD spectra deconvolution software was utilized to determine the secondary structure content of the proteins. […] Absorbance was maintained lower than 1.0 to ensure sufficient light transmission. The temperature-dependence curve was plotted using GraphPad Prism® (version 5, GraphPad Software, Inc. La Jolla).

[4] = Effects of denaturant (urea) and reducing agent (2-ME) by CD and intrinsic tryptophan fluorescence; assay type: physicochemical; conditions: normalized to no denaturant
Experimental: CD and intrinsic tryptophan fluorescence were used to probe disulfide bond formation in the water-soluble variant. […] Even in 8 M urea, the protein retains some helical structure (Table 2). Upon addition of 2-ME, both the molar ellipticity and fluorescence further decreased, becoming more pronounced at the higher concentration of the reducing agent (200 mM). Thus the presence of an intramolecular disulfide bond is corroborated in the case of wsMUR-TM.

[5] = pH 7.0 + 0.1% SDS, expressed in yeast system

mu receptor protein, sequence (P35372 whole entry, looked up): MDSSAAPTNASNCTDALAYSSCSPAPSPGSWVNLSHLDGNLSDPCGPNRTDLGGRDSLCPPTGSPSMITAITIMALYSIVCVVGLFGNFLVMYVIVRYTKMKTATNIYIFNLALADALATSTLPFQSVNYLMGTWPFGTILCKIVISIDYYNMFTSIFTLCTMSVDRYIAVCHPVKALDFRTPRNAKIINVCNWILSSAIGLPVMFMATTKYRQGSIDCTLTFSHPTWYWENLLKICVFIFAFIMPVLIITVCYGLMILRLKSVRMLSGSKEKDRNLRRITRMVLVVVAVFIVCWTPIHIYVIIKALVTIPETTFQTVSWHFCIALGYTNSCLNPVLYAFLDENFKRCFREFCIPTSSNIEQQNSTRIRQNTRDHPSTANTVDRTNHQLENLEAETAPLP

## Native MUR: native human μ receptor expressed in yeast system, in 0.1% SDS [reference compound]
[1]; [5]
  Helix content (CD 205-260 nm): 40.6%
  Others content (CD 205-260 nm): 40.5%
  Turn content (CD 205-260 nm): 18.9%

## O=C1CC[C@@]2(O)[C@H]3Cc4ccc(O)c5c4[C@@]2(CCN3CC2CC2)[C@H]1O5 [naltrexone]
mu-receptor protein; 10 ng/mL
  Average 2D peak position after analyte: 2683.19 ± 0.20
  Average G peak position after analyte: 1591.61 ± 0.13
mu-receptor protein; 10 micrograms/mL
  Average 2D peak position after analyte: 2685.83 ± 0.26
  Average G peak position after analyte: 1594.39 ± 0.15

## CCOC(=O)c1ncn2c1CN(C)C(=O)c1cc(F)ccc1-2 [Flumazenil]
Mu receptor protein
  sensor response (Dirac voltage shift): −0.2±0.4 V

B1: wsMUR-TM+7mut: second wsMUR recombinant protein (protein)
chain: SMITAIKILEEYKKVCEEGRKGNKLVMEVIVRYTKMKTATNIYIFNLAKADALAESTLPFQSVNKLMGTWPFGTILCKKVISIDYYNMFTSIFTLCTMSVDRYIAVCHPVKALDFRTPRNAKEHNEKNWKLSSEIGKPVEKRATTKYRQGSIDCTLTFSHPTWYWEDKLKDTVFKKAFEEPVKVIKECYGLMILRLKSVRMLSGSKEKDRNLRRITRMVLVVVEVFIKCWTEIHKYVKEGKL
[2]
  binding activity / affinity with naltrexone: binding activity was also observed

B2: wsMUR-TM: transmembrane-only water-soluble human mu receptor variant (protein)
chain: SMITAIKIHEEYKKVCEEGKKGNKLVMEVIVRYTKMKTATNIYIFNLAKADALAESTLPFQSVNKLMGTWPFGTILCKKVISIDYYNMFTSIFTLCTMSVDRYIAVCHPVKALDFRTPRNAKEENEKNWKLSSEIGKPVEKKATTKYRQGSIDCTLTFSHPTWYWEDKLKDEVFKKAFEEPVKKIKECYGLMILRLKSVRMLSGSKEKDRNLRRITRMVLVVVEVFIKCWTEIHKYVKEGKLVTIPETTFQTVSWHECIAKGYKNSCENPKLYEELDENFKRCFREFC
[3]; pH=7.0, 10 to 90° C.
  temperature at which ellipticity (222 nm) starts to be lost significantly: ~62 °C
[3]; absence of cholesterol
  melting point (CD thermostability): 82.9 °C
[3]; presence of cholesterol
  melting point (CD thermostability): 89.3 °C
[1]; pH 7.0 in NaHPO4
  Helix content (CD 205-260 nm): 48.0%
  Others content (CD 205-260 nm): 37.4%
  Turn content (CD 205-260 nm): 14.6%
[4]; Urea (8M) 2-ME (25 mM)
  Fluorescence Peak Intensity (%; 300-350 nm): 23.9%
  Molar Ellipticity (%; 222 nm): 25.1%
[4]; Urea (8M) 2-ME (200 mM)
  Fluorescence Peak Intensity (%; 300-350 nm): 4.5%
  Molar Ellipticity (%; 222 nm): 0.0%
[4]; Urea (8M)
  Fluorescence Peak Intensity (%; 300-350 nm): 28.4%
  Molar Ellipticity (%; 222 nm): 40.0%
